Test [1] deals with human Trop-2 (human) (UniProt P09758). The experiment in a line: cell binding on NCI-N87 cells, anti-mouse-HRP secondary, luminescence.
The target is the same in test [2]. Briefly: cell binding on NCI-N87 cells, maximum binding compared to murine RS7.
For test [3] the target is unchanged. The experiment in a line: cell binding assay on Trop-2 expressing cells, cell line not named.

Sequence of human Trop-2 (human) (P09758 27-323): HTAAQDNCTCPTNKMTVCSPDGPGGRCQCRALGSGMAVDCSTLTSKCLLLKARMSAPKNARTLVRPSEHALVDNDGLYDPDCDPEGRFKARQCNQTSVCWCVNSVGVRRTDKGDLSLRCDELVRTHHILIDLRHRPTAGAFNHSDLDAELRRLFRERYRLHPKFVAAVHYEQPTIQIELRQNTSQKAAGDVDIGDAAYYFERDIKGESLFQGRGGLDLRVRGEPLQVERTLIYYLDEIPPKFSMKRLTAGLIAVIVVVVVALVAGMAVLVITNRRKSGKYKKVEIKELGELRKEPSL

Turning to “162-46.2 murine monoclonal antibody against human Trop-2”, in the test with human Trop-2 (human) [1], the BMax (maximum binding) (relative luminescent units) amounted to 8470. In the test with human Trop-2 (human) [2], the reduction of maximum binding relative to RS7 amounted to 25%.
Consider “MAB650 murine monoclonal antibody against human Trop-2”, for which, in the test with human Trop-2 (human) [1], the BMax (maximum binding) (relative luminescent units) was determined as 6020 and the Kd (in general, the concentration at which binding is half-saturated) is 0.49 nM. Further, the reduction of maximum binding relative to RS7 with human Trop-2 (human) [2] amounted to 50%.
In the test with human Trop-2 (human) [3], hRS7-CL2A-SN-38 antibody-drug conjugate returned an equilibrium dissociation constant (Kd) of 1.2 nM.

B1: hRS7-CL2-SN-38 antibody-drug conjugate (antibody, INN chains, looked up, V domains shown)
VH: QVQLQQSGSELKKPGASVKVSCKASGYTFTNYGMNWVKQAPGQGLKWMGWINTYTGEPTYTDDFKGRFAFSLDTSVSTAYLQISSLKADDTAVYFCARGGFGSSYWYFDVWGQGSLVTVSS
VL: DIQLTQSPSSLSASVGDRVSITCKASQDVSIAVAWYQQKPGKAPKLLIYSASYRYTGVPDRFSGSGSGTDFTLTISSLQPEDFAVYYCQQHYITPLTFGAGTKVEIK
modifications: SN-38 via CL2 linker
B1 yielded a Kd with human Trop-2 (human) [3] of 1.2 nM.

(Values after patent publication US20180271992A1.)
